{"source": "patent KR20170021349A", "about": "“다양한 질병의 치료를 위한 jnk 신호 전달 경로의 세포 투과성 펩타이드 억제자의 새로운 용도” (자이겐 인플라메이션 리미티드, priority 2014, dated 2017)", "key": {"Brown Norway rats": {"system": "Brown Norway rats", "assay": "STZ diabetic retinopathy prevention, intravitreal, ERG", "assay_type": "in vivo, rat", "conditions": "for scotopic single flash -30dB B-wave amplitude / OP#1 scotopic single flash 0dB amplitude / OP#2 scotopic single flash 0dB amplitude / OP#3 scotopic single flash 0dB amplitude / OP#4 scotopic single flash 0dB amplitude / photopic 1Hz flicker A-wave amplitude / photopic 1Hz flicker B-wave amplitude / photopic 29Hz flicker B-wave amplitude / scotopic single flash 0dB A-wave amplitude / scotopic single flash 0dB B-wave amplitude / scotopic single flash -10dB A-wave amplitude: 2 μg/eye"}, "Wistar rats [1]": {"system": "Wistar rats", "assay": "PAN-induced nephropathy, frequency of administration", "assay_type": "in vivo, rat"}, "[2]": {"assay": "Ocular MTD study, subconjunctival", "assay_type": "in vivo, rabbit"}, "C57BL/6 mice": {"system": "C57BL/6 mice", "assay": "Bleomycin-induced lung fibrosis, day 10", "assay_type": "in vivo, mouse", "conditions": "for lymphocyte recruitment and total cell number in BAL: 3x in 10 days; for decrease of inflammatory cell accumulation, fibrotic areas, loss of lung architecture (histology): day 10"}, "Wistar rats [3]": {"system": "Wistar rats", "assay": "Puromycin aminonucleoside (PAN)-induced nephropathy, 56 days", "assay_type": "in vivo, rat"}, "[4]": {"system": "primary mouse cortical neurons", "assay": "JNK activation in cortical neurons under H2O2 oxidative stress", "assay_type": "cell-based", "conditions": "5 μM pre-treatment; 1 mM H2O2 15 min"}, "db/db mice": {"system": "db/db mice", "assay": "db/db mouse model of type 2 diabetes", "assay_type": "in vivo"}}, "data": [{"substance": "NH2-DQSRPVQPFLNLTTPRKPRPPRRRQRRKKRG-COOH (H-DQSRPVQPFLNLTTPRKPRPPRRRQRRKKRG-OH; also: D-amino acids (positions not given here)) [XG-102]", "values": [{"measurement": "scotopic single flash -30dB B-wave amplitude", "setting": "Brown Norway rats; day 6", "value": 270, "unit": "μV"}, {"measurement": "OP#1 scotopic single flash 0dB amplitude", "setting": "Brown Norway rats; day 13", "value": 33, "unit": "μV"}, {"measurement": "OP#2 scotopic single flash 0dB amplitude", "setting": "Brown Norway rats; day 13", "value": 92, "unit": "μV"}, {"measurement": "OP#3 scotopic single flash 0dB amplitude", "setting": "Brown Norway rats; day 13", "value": 219, "unit": "μV"}, {"measurement": "OP#4 scotopic single flash 0dB amplitude", "setting": "Brown Norway rats; day 13", "value": 160, "unit": "μV"}, {"measurement": "photopic 1Hz flicker A-wave amplitude", "setting": "Brown Norway rats; day 13", "value": -6, "unit": "μV"}, {"measurement": "photopic 1Hz flicker B-wave amplitude", "setting": "Brown Norway rats; day 13", "value": 91, "unit": "μV"}, {"measurement": "photopic 29Hz flicker B-wave amplitude", "setting": "Brown Norway rats; day 13", "value": 17, "unit": "μV"}, {"measurement": "scotopic single flash 0dB A-wave amplitude", "setting": "Brown Norway rats; day 13", "value": -261, "unit": "μV"}, {"measurement": "scotopic single flash 0dB B-wave amplitude", "setting": "Brown Norway rats; day 13", "value": 524, "unit": "μV"}, {"measurement": "scotopic single flash -10dB A-wave amplitude", "setting": "Brown Norway rats; day 13", "value": -152, "unit": "μV"}, {"measurement": "scotopic single flash -30dB B-wave amplitude", "setting": "Brown Norway rats; day 13", "value": 292, "unit": "μV"}, {"measurement": "OP#1 scotopic single flash 0dB amplitude", "setting": "Brown Norway rats; day 20", "value": 26, "unit": "μV"}, {"measurement": "OP#2 scotopic single flash 0dB amplitude", "setting": "Brown Norway rats; day 20", "value": 49, "unit": "μV"}, {"measurement": "OP#3 scotopic single flash 0dB amplitude", "setting": "Brown Norway rats; day 20", "value": 137, "unit": "μV"}, {"measurement": "OP#4 scotopic single flash 0dB amplitude", "setting": "Brown Norway rats; day 20", "value": 130, "unit": "μV"}, {"measurement": "photopic 1Hz flicker A-wave amplitude", "setting": "Brown Norway rats; day 20", "value": -2, "unit": "μV"}, {"measurement": "photopic 1Hz flicker B-wave amplitude", "setting": "Brown Norway rats; day 20", "value": 45, "unit": "μV"}, {"measurement": "photopic 29Hz flicker B-wave amplitude", "setting": "Brown Norway rats; day 20", "value": 9, "unit": "μV"}, {"measurement": "scotopic single flash 0dB A-wave amplitude", "setting": "Brown Norway rats; day 20", "value": -147, "unit": "μV"}, {"measurement": "scotopic single flash 0dB B-wave amplitude", "setting": "Brown Norway rats; day 20", "value": 278, "unit": "μV"}, {"measurement": "scotopic single flash -10dB A-wave amplitude", "setting": "Brown Norway rats; day 20", "value": -84, "unit": "μV"}, {"measurement": "scotopic single flash -30dB B-wave amplitude", "setting": "Brown Norway rats; day 20", "value": 166, "unit": "μV"}, {"measurement": "substance-related deaths", "setting": "Brown Norway rats; 0.2 and 2 μg/eye IVT", "value": "XG-102 관련된 사망은 없었다"}, {"measurement": "overall effect on decrease of ERG wave amplitudes", "setting": "Brown Norway rats; rat, in vivo", "value": "웨이브 진폭의 감소를 역전시키는 경향이 있다"}, {"measurement": "vascular leakage on fluorescein angiography", "setting": "Brown Norway rats; rat, in vivo", "value": "혈관 누출을 나타내지 않았고"}, {"measurement": "glomerular injury score (GIS)", "setting": "Wistar rats [1]; 4 mg/kg i.v. x1 (d21), day 49", "value": "1.53 ± 0.05"}, {"measurement": "glomerular injury score (GIS)", "setting": "Wistar rats [1]; 4 mg/kg i.v. x1 (d21), day 77, PAN/vehicle 1.39 ± 0.10", "value": "0.82 ± 0.04"}, {"measurement": "percentage of injured glomeruli", "setting": "Wistar rats [1]; 4 mg/kg i.v. x1, day 77 (PAN/vehicle 91%)", "value": 69, "unit": "%"}, {"measurement": "glomerular injury score (GIS)", "setting": "Wistar rats [1]; 4 mg/kg i.v. x2 (d21, d35), day 49, P<0.01", "value": "1.26 ± 0.06"}, {"measurement": "glomerular injury score (GIS)", "setting": "Wistar rats [1]; 4 mg/kg i.v. x4 (weekly from d21), day 49, PAN/vehicle 1.50 ± 0.06", "value": "0.94 ± 0.05"}, {"measurement": "percentage of injured glomeruli", "setting": "Wistar rats [1]; 4 mg/kg i.v. x4, day 49", "value": 76.9, "unit": "%"}, {"measurement": "mean % glomeruli with grade 1", "setting": "Wistar rats [1]; 4 mg/kg i.v. x4, day 49 (PAN/vehicle 37%)", "value": 61, "unit": "%"}, {"measurement": "mean % glomeruli with grade 2", "setting": "Wistar rats [1]; 4 mg/kg i.v. x4, day 49 (PAN/vehicle 46%)", "value": 15, "unit": "%"}, {"measurement": "NOAEL", "setting": "[2]", "value": "~600", "unit": "µg"}, {"measurement": "lymphocyte recruitment and total cell number in BAL", "setting": "C57BL/6 mice; 0.001 mg/kg s.c.", "value": "현저하게 감소시켰다"}, {"measurement": "decrease of inflammatory cell accumulation, fibrotic areas, loss of lung architecture (histology)", "setting": "C57BL/6 mice; 0.001 mg/kg", "value": "관찰되었으나"}, {"measurement": "lymphocyte recruitment and total cell number in BAL", "setting": "C57BL/6 mice; 0.1 mg/kg s.c.", "value": "효과가 없었다"}, {"measurement": "decrease of inflammatory cell accumulation, fibrotic areas, loss of lung architecture (histology)", "setting": "C57BL/6 mice; 0.1 mg/kg", "value": "관찰되지 않았다"}, {"measurement": "effect on PAN-induced glomerulosclerosis", "setting": "Wistar rats [3]; 1 mg/kg, 7 weekly i.v. injections", "value": "효과가 없었다"}, {"measurement": "effect on PAN-induced glomerulosclerosis", "setting": "Wistar rats [3]; 4 mg/kg, 4 i.v. injections from day 21", "value": "강한 효과를 초래하였다"}, {"measurement": "PAN-induced glomerulosclerosis", "setting": "Wistar rats [3]; 7 weekly i.v. injections, 2 and 4 mg/kg", "value": "용량 의존적으로 현저하게 감소시키는"}, {"measurement": "decrease in plasma LDL", "setting": "Wistar rats [3]; especially 4 mg/kg groups", "value": "현저하는 않더라도 관찰되었다"}, {"measurement": "effect on body weight vs PAN/saline", "setting": "Wistar rats [3]; rat, in vivo", "value": "관찰되지 않았다"}, {"measurement": "JNK activity (pJNK/JNK) induced by H2O2", "setting": "[4]", "value": "JNK 활성을 억제하였다"}, {"measurement": "effect on fasting blood glucose", "setting": "db/db mice; 1 mg/kg s.c. daily 28 days", "value": "효과가 관찰되지 않았다"}, {"measurement": "effect on body weight", "setting": "db/db mice; 1 mg/kg, 28 days", "value": "효과가 관찰되지 않았다"}, {"measurement": "fasting blood glucose plateau", "setting": "db/db mice; 10 mg/kg s.c. daily 21 days, persisted to day 111, p<0.001", "value": "~5", "unit": "mmol/L"}, {"measurement": "brain, spleen, heart weight", "setting": "db/db mice; 10 mg/kg, day 111", "value": "현저한 효과가 관찰되지 않았다"}, {"measurement": "epididymal (p<0.05) and retroperitoneal (p<0.01) fat mass", "setting": "db/db mice; 10 mg/kg, day 111", "value": "현저한 감소를 관찰했다"}, {"measurement": "kidney (p<0.05) and liver (p<0.01) mass", "setting": "db/db mice; 10 mg/kg, day 111", "value": "현저한 감소가 관찰되었다"}, {"measurement": "plasma insulin, MCP-1, IL-6, tPAI-1, TNF", "setting": "db/db mice; 10 mg/kg, days 57, 77, 108", "value": "현저한 효과가 발견되지 않았으며"}, {"measurement": "plasma resistin", "setting": "db/db mice; 10 mg/kg, days 77 and 108", "value": "현저하게 높았다"}, {"measurement": "24 h food and water intake, urine and faeces production", "setting": "db/db mice; 10 mg/kg, metabolic cages", "value": "현저한 효과는 관찰되지 않았다"}, {"measurement": "body weight gain", "setting": "db/db mice; 10 mg/kg, from day 28 to 111", "value": "명확하고 현저한 예방"}, {"measurement": "injection-site finding in subcutaneous tissue", "setting": "db/db mice; high dose, after about 2 weeks of dosing, progressed to open wounds, healed after end of dosing", "value": "결절 섬유화가 발견되었고"}]}]}
